Test results published in patent US20230295298A1 (PRECISION BIOLOGICS, published 2023).
Positions count from the first letter of the chain named.

B1: humanized 31.1 antibody #5 (abb31.1-HC + cdr31.1-LC) (antibody, human IgG1, kappa, V domains shown)
VH: QIQLVQSGAEVKKPGASVKVSCKASGYTFTNYGMNWVRQAPGKGLEWMGWINTYTGEPTYAQKFQGRVTFTLDTSISTAYMELSRLRSDDTAVYFCARAYYGKYFDYWGQGTTVTVSS
VL: SIVMTQSPSSLSASVGDRVTITCKASQSVSNDVAWYQQKPGQSPKLLIYYASNRYTGVPDRFSGSGYGTDFTLTISSLQPEDFAVYFCQQDYSSPLTFGAGTKLEIKR
notes: Full heavy and light chains; supernatant in the first screen, Protein A/G purified in the second round; also called Sample ID 5; abb-HC + cdr-LC
B2: H31.1 #5-biotin (antibody, human IgG1, kappa, V domains shown)
VH: B1 VH
VL: B1 VL
modifications: biotinylated antibody, sites not stated
notes: Biotinylated form of antibody #5; also called biotinylated #5; biotinylated h31.1 #5
B3: humanized 31.1 antibody #6 (abb31.1-HC + abb31.1-LC) (antibody, human IgG1, kappa, V domains shown)
VH: B1 VH
VL: B1 VL with V3Q, K24R, T56S
notes: Full heavy and light chains; supernatant in the first screen, Protein A/G purified in the second round; also called Sample ID 6; abb-HC + abb-LC
B4: H31.1 #6-biotin (antibody, human IgG1, kappa, V domains shown)
VH: B1 VH
VL: B1 VL with V3Q, K24R, T56S
modifications: biotinylated antibody, sites not stated
notes: Biotinylated form of antibody #6; also called biotinylated #6; biotinylated h31.1 #6
B5: humanized 31.1 antibody #14 (ven-HC + abb-LC) (antibody, human IgG1, kappa, V domains shown)
VH: QIQLVQSGPEVKKPGASVKISCKASGYTFTNYGMNWVKQAPGQGLKWMGWINTYTGEPTYADDFKGRFAFTLDTSISTAYLEISRLRSDDTAVYFCARAYYGKYFDYWGQGTTLTVSS
VL: B1 VL with V3Q, K24R, T56S
notes: Full heavy and light chains; transient Expi293 expression, tested as culture supernatant; also called Sample ID 14; ven31.1-HC + abb31.1-LC
B6: humanized 31.1 antibody #16 (ven31.1-HC + ven31.1-LC) (antibody, human IgG1, kappa, V domains shown)
VH: B5 VH
VL: B1 VL with A13V, L73F, L78V, F83L, I106L
notes: Full heavy and light chains; supernatant in the first screen, Protein A/G purified in the third round; also called Sample ID 16; ven-HC + ven-LC
B7: humanized 31.1 antibody #10 (sdr-HC + abb-LC) (antibody, human IgG1, kappa, V domains shown)
VH: B1 VH with T53P
VL: B1 VL with V3Q, K24R, T56S
notes: Full heavy and light chains; transient Expi293 expression, tested as culture supernatant; also called Sample ID 10; sdr31.1-HC + abb31.1-LC
B8: humanized 31.1 antibody #13 (ven-HC + cdr-LC) (antibody, human IgG1, kappa, V domains shown)
VH: B5 VH
VL: B1 VL
notes: Full heavy and light chains; transient Expi293 expression, tested as culture supernatant; also called Sample ID 13; ven31.1-HC + cdr31.1-LC
B9: humanized 31.1 antibody #15 (ven-HC + sdr-LC) (antibody, human IgG1, kappa, V domains shown)
VH: B5 VH
VL: B1 VL with V3Q, K24R, V29I, V33L
notes: Full heavy and light chains; transient Expi293 expression, tested as culture supernatant; also called Sample ID 15; ven31.1-HC + sdr31.1-LC
B10: humanized 31.1 antibody #4 (cdr-HC + ven-LC) (antibody, human IgG1, kappa, V domains shown)
VH: B5 VH with P9A, I20V, Q43K, L81M, I83L, L114V
VL: B1 VL with A13V, L73F, L78V, F83L, I106L
notes: Full heavy and light chains; transient Expi293 expression, tested as culture supernatant; also called Sample ID 4; cdr31.1-HC + ven31.1-LC
B11: humanized 31.1 antibody #9 (sdr-HC + cdr-LC) (antibody, human IgG1, kappa, V domains shown)
VH: B1 VH with T53P
VL: B1 VL
notes: Full heavy and light chains; transient Expi293 expression, tested as culture supernatant; also called Sample ID 9; sdr31.1-HC + cdr31.1-LC
B12: humanized 31.1 antibody #12 (sdr-HC + ven-LC) (antibody, human IgG1, kappa, V domains shown)
VH: B1 VH with T53P
VL: B1 VL with A13V, L73F, L78V, F83L, I106L
notes: Full heavy and light chains; transient Expi293 expression, tested as culture supernatant; also called Sample ID 12; sdr31.1-HC + ven31.1-LC
B13: humanized 31.1 antibody #1 (cdr-HC + cdr-LC) (antibody, human IgG1, kappa, V domains shown)
VH: B5 VH with P9A, I20V, Q43K, L81M, I83L, L114V
VL: B1 VL
notes: Full heavy (448 aa) and light (214 aa) chains; transient Expi293 expression, tested as culture supernatant; also called Sample ID 1; cdr31.1-HC + cdr31.1-LC
B14: humanized 31.1 antibody #2 (cdr-HC + abb-LC) (antibody, human IgG1, kappa, V domains shown)
VH: B5 VH with P9A, I20V, Q43K, L81M, I83L, L114V
VL: B1 VL with V3Q, K24R, T56S
notes: Full heavy and light chains; transient Expi293 expression, tested as culture supernatant; also called Sample ID 2; cdr31.1-HC + abb31.1-LC
B15: humanized 31.1 antibody #8 (abb-HC + ven-LC) (antibody, human IgG1, kappa, V domains shown)
VH: B1 VH
VL: B1 VL with A13V, L73F, L78V, F83L, I106L
notes: Full heavy and light chains; transient Expi293 expression, tested as culture supernatant; also called Sample ID 8; abb31.1-HC + ven31.1-LC
B16: humanized 31.1 antibody #7 (abb-HC + sdr-LC) (antibody, human IgG1, kappa, V domains shown)
VH: B1 VH
VL: B1 VL with V3Q, K24R, V29I, V33L
notes: Full heavy and light chains; transient Expi293 expression, tested as culture supernatant; also called Sample ID 7; abb31.1-HC + sdr31.1-LC
B17: humanized 31.1 antibody #3 (cdr-HC + sdr-LC) (antibody, human IgG1, kappa, V domains shown)
VH: B5 VH with P9A, I20V, Q43K, L81M, I83L, L114V
VL: B1 VL with V3Q, K24R, V29I, V33L
notes: Full heavy and light chains; transient Expi293 expression, tested as culture supernatant; also called Sample ID 3; cdr31.1-HC + sdr31.1-LC

Each binder was assayed against T1, human recombinant A33 antigen (human, UniProt Q99795 22-235) (assay: rH-GPA33 binding ELISA).
T1 construct: also called rH-GPA33; rHGPA33
T1 sequence: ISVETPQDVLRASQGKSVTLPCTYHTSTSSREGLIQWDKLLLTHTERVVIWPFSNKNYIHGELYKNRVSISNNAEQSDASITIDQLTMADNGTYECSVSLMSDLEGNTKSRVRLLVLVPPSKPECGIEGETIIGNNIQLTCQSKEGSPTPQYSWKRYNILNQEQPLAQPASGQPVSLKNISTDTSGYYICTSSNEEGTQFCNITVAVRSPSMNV

Binder | EC50 [µg/mL]
B1 | 0.396
B2 | 0.679
B3 | 1.23
B4 | 12.8

These binders were tested against T2, human A33 antigen, full length, on cells (human, UniProt Q99795 22-319) (assay: flow cytometry, LS-174T cells).
T2 construct: CHO cells transfected with full length A33 cDNA (A33-CHO), or endogenous antigen of LS174T (colon) and AsPC-1 (pancreatic) tumour cells; The cell line is named under assay; also called A33-CHO; A33 antigen on LS174T cells
T2 sequence: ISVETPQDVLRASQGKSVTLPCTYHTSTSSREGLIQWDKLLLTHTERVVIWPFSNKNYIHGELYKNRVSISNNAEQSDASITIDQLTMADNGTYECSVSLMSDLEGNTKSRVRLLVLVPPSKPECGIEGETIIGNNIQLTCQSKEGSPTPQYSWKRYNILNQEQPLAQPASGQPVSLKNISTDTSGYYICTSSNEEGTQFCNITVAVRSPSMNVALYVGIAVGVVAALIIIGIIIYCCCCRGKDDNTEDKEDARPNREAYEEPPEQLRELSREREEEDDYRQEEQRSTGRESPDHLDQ

Binder | EC50 [µg/mL]
B1 | 0.0625
B3 | 0.0809

The binders below were run against T2, human A33 antigen, full length, on cells (assay: IHC on LS174T FFPE sections, 20ug/mL, first result).

Binder | H-Score of IHC [H-Score]
B1 | 240
B5 | 125
B6 | 0
B3 | 230
B7 | 240

These binders were tested against T2, human A33 antigen, full length, on cells (assay: flow cytometry, AsPC-1 cells (second AsPC-1 column)).

Binder | EC50 [µg/mL]
B1 | 0.122
B3 | 0.152

Each binder was assayed against T2, human A33 antigen, full length, on cells (assay: flow cytometry on LS174T cells, 0.37ug/mL).
Experimental: (§1) Human IgG ELISA, rH-GPA33 Binding ELISA, cell Flow Cytometry (LS174T or AsPAC1), IHC staining (LS174T FFPE, tumor FFPE and Frozen tumor sections) and Coomassie blue staining of SDS-PAGE gel were used for the screening. Antibody in the culture supernatant was purified by Protein A/G purification in the column and dissolved in PBS buffer after three times dialysis. Aliquots of the antibodies were kept at -20° C. for storage.
(§2) Each combination was produced by transient transfection by using Expi293 Expression System Kit (Gibco, cat# A14635). […] Methods of Human IgG ELISA, rH-GPA33 Binding ELISA, LS174T cell Flow Cytometry, IHC staining on LS174T FFPE sections and Coomassie blue staining of SDS-PAGE gel were used for the initial screening.

Binder | MFI [MFI]
B1 | 804
B5 | 1060
B8 | 1150
B9 | 689
B6 | 966
B3 | 628
B10 | 726
B11 | 6.65
B12 | 10.6
B13 | 878
B14 | 821
B15 | 934
B16 | 481
B17 | 520
B7 | 6.2

Each binder was assayed against T2, human A33 antigen, full length, on cells (assay: IHC on LS174T FFPE sections, 20ug/mL).
Experimental: as §1, §2

Binder | H-Score of IHC [H-Score]
B8 | 20
B9 | 90
B10 | 0
B11 | 150
B12 | 30
B13 | 0
B14 | 0
B15 | 125
B16 | 120
B17 | 0

These binders were tested against T1, human recombinant A33 antigen (assay: rH-GPA33 binding ELISA, 2ug/mL of 31.1, supernatant).
Experimental: as §1, §2

Binder | OD Value of rH-GPA33 Binding ELISA [OD]
B1 | 0.85
B5 | 1.44
B8 | 1.27
B9 | 0.46
B6 | 1.74
B3 | 0.74
B10 | 1.27
B11 | 0.07
B12 | 0.06
B13 | 0.8
B14 | 0.86
B15 | 1.2
B16 | 0.2
B17 | 0.29
B7 | 0.07

These binders were tested against T2, human A33 antigen, full length, on cells (assay: flow cytometry, AsPC-1 cells (first AsPC-1 column)).

Binder | EC50 [µg/mL]
B1 | 0.235
B2 | 0.408
B3 | 0.276
B4 | 0.368

Each binder was assayed against T2, human A33 antigen, full length, on cells (assay: IHC on LS174T FFPE sections, 20ug/mL, repeat result).

Binder | H-Score of IHC [H-Score]
B1 | 100
B5 | 30
B6 | 0
B3 | 240
B7 | 115
